According to patent publication CN113372440A (SUN YAT SEN UNIV CANCER CENTER SUN YAT SEN UNIV AFFILIATED …, dated 2021):
Like-named read-outs stand apart in the source and are kept apart here.

Assays:
[1] = target: T1, gLgH蛋白 (recombinant single-chain EBV M81 gL ectodomain - linker - gH ectodomain - 6xHis) (Epstein-Barr virus (M81 strain, …)); assay: ELISA, gLgH coated at 2 μg/mL, antibody titrated from 1 μg/mL, HRP goat anti-mouse IgG (Fig. 1)
T1 construct: also called gHgL蛋白; gLgH protein

[2] = target: T1, gLgH蛋白 (recombinant single-chain EBV …)
[3] = target: gH/gL glycoprotein on EBV virions produced by AKATA cells (Epstein-Barr virus, UniProt P03231 19-706; P03212 23-137); assay: cell-based or functional assay
[4] = target: T1, gLgH蛋白 (recombinant single-chain EBV …); assay: ELISA by the method of Example 1 step 5, gLgH coated (Fig. 8)
[5] = target: T1, gLgH蛋白 (recombinant single-chain EBV …); assay: SPR by the method of Example 4 (Biacore 8K, Protein A capture, gLgH as analyte) (Fig. 9)

B1: 单克隆抗体6H2 (anti-EBV gLgH mouse monoclonal antibody 6H2) (antibody, V domains shown)
VH: EVKLLESGGGLVQPGGSLKLSCAASGFDFSRYWMTWVRQAPGQGLEWIGEINPDSSTINYTPSLKDKFIISRDNAKNTLYLQVSKLRSEDTALYYCARSPYYYGSSYDVWGAGTAVTVSS
VL: DIVMSQSPSSLAVSAGEKVTMNCKSSQSLLNSRTRKNYLAWYQQKPGQSPKLLIYWASTRESGVPDRFTGSGSGTDFTLTISSVQAEDLAFYYCKQSYNLPTFGGGTKLEIK
notes: also called 单抗6H2; 中和抗体6H2
EC50 [1]: 0.0134 µg/mL | Kd [2]: 2.8 nM | IC50 in the epithelial cell infection model (HNE1 cells, GFP-EBV, inhibition of GFP-positive cells) [3]: 0.108 µg/mL

B2: 嵌合单抗C6H2 (mouse 6H2 variable regions on human IgG1/kappa constant regions) (antibody, V domains shown)
VH: EVKLLESGGGLVQPGGSLKLSCAASGFDFSRYWMTWVRQAPGQGLEWIGEINPDSSTINYTPSLKDKFIISRDNAKNTLYLQVSKLRSEDTALYYCARSPYYYGSSYDVWGAGTAVTVSS
VL: DIVMSQSPSSLAVSAGEKVTMNCKSSQSLLNSRTRKNYLAWYQQKPGQSPKLLIYWASTRESGVPDRFTGSGSGTDFTLTISSVQAEDLAFYYCKQSYNLPTFGGGTKLEIKR
notes: also called 嵌合抗体C6H2
EC50 [4]: 0.0266 µg/mL | Kd [5]: 11.5 nM
